This experiment concerns the target EFG displayed on the surface of E. coli BL21 as a fusion with InaZN and mCherry (BL21-pEImC-EFG) (Escherichia coli (ExPEC strain RS218)) (UniProt P0A6M8). Nature of the experiment: fluorescence intensity of labelled ligand bound to bacteria, competition; BL21-pEImC-EFG incubated with a mixture of fluor-TF (20 μg/mL) and an excess of unlabeled holo-TF; fluorescence of 10^7 bacterial cells, excitation 485 nm, emission 535 nm.

Results on one substance are retold here after article PMC9045202.

UniProt P0A6M8, sequence (P0A6M8 whole entry, the tested form may be a part): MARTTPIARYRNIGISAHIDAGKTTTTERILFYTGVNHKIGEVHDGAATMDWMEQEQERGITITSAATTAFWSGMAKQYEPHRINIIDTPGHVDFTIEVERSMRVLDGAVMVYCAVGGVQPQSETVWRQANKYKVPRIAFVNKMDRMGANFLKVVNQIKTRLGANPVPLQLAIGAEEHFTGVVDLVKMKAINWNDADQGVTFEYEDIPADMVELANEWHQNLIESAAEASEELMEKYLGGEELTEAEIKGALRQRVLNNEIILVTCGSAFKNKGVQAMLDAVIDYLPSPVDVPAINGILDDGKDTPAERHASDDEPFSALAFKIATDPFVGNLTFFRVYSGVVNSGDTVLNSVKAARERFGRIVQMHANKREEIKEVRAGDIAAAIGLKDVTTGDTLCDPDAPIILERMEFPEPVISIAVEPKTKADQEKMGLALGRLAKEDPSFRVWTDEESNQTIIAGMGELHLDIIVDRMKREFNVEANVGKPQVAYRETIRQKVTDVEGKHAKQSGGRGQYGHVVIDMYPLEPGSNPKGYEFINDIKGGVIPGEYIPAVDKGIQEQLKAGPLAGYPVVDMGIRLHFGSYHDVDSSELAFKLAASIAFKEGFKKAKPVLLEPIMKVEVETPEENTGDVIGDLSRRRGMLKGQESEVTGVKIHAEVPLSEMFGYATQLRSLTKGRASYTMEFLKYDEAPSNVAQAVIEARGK

With “holo-transferrin (iron-saturated holo-TF), unlabeled (from UniProt P02787 20-698) (natural protein)”, the fluorescence intensity of bound fluor-TF with an excess of unlabeled holo-TF stood at 76.4%.
